Consider 6 substances from the supplement of paper PMC5998384.

In data set [1] the test system is HeLa Kyoto. In words: solubility in G1/S (NP-40 vs SDS abundance) (log2 ratio); higher = more soluble. The note with it: cell cycle stage: G1/S.
Data set [2] deals with HeLa Kyoto. In words: melting temperature (median over replicates), in situ; higher = more thermally stable.
Data set [3] deals with HeLa Kyoto. In words: solubility change mitosis vs G1/S (difference of NP-40 vs SDS log2 ratios) (log2 ratio difference); higher = more soluble in mitosis.
For data set [4], the system named is HeLa Kyoto. In words: thermal stability score vs G1/S (z-score of summed log2 fold changes over temperatures); higher = more thermally stable than in G1/S.
Setting [5] is: cell cycle stage: early G1 (4.5 h after nocodazole release).
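Throughout, for melting temperature (median over replicates), in situ: HeLa Kyoto cells synchronized by double thymidine or nocodazole block, proteins quantified by TMT10plex mass spectrometry, three independent biological replicates.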
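Throughout, for solubility change mitosis vs G1/S (difference of NP-40 vs SDS log2 ratios): synchronized HeLa Kyoto cells (double thymidine block for G1/S, nocodazole release for mitosis), protein amounts in NP-40 versus SDS lysates quantified by mass spectrometry, three biological replicates.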
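Throughout, for solubility in G1/S (NP-40 vs SDS abundance): HeLa Kyoto cells arrested at G1/S by double thymidine block, proteins quantified by TMT10plex mass spectrometry in mild NP-40 versus SDS extracts, three biological replicates.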
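Throughout, for thermal stability score vs G1/S (z-score of summed log2 fold changes over temperatures): synchronized HeLa Kyoto cells, proteins quantified by TMT10plex mass spectrometry, three biological replicates, mitosis taken 0.5 h after nocodazole release, G1/S directly after double thymidine block.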

As to “MIPVTELRYFADTQPAYRILKPWWDVFTDYISIVMLMIAVFGGTLQVTQDKMICLPCKWVTKDSCNDSFRGWAAPGPEPTYPNSTILPTPDTGPTGIKYDLDRHQYNYVDAVCYENRLHWFAKYFPYLVLLHTLIFLACSNFWFKFPRTSSKLEHFVSILLKCFDSPWTTRALSETVVEESDPKPAFSKMNGSMDKKSSTVSEDVEATVPMLQRTKSRIEQGIVDRSETGVLDKKEGEQAKALFEKVKKFRTHVEEGDIVYRLYMRQTIIKVIKFILIICYTVYYVHNIKFDVDCTVDIESLTGYRTYRCAHPLATLFKILASFYISLVIFYGLICMYTLWWMLRRSLKKYSFESIREESSYSDIPDVKNDFAFMLHLIDQYDPLYSKRFAVFLSEVSENKLRQLNLNNEWTLDKLRQRLTKNAQDKLELHLFMLSGIPDTVFDLVELEVLKLELIPDVTIPPSIAQLTGLKELWLYHTAAKIEAPALAFLRENLRALHIKFTDIKEIPLWIYSLKTLEELHLTGNLSAENNRYIVIDGLRELKRLKVLRLKSNLSKLPQVVTDVGVHLQKLSINNEGTKLIVLNSLKKMANLTELELIRCDLERIPHSIFSLHNLQEIDLKDNNLKTIEEIISFQHLHRLTCLKLWYNHIAYIPIQIGNLTNLERLYLNRNKIEKIPTQLFYCRKLRYLDLSHNNLTFLPADIGLLQNLQNLAITANRIETLPPELFQCRKLRALHLGNNVLQSLPSRVGELTNLTQIELRGNRLECLPVELGECPLLKRSGLVVEEDLFNTLPPEVKERLWRADKEQA [LRRC8A]”, in the data set on HeLa Kyoto [1], the “solubility in G1/S (log2)” value is -0.294. Also, the figures for the melting temperature with HeLa Kyoto [2] (cell cycle stage: G1/S) and in the data set with HeLa Kyoto [2] (cell cycle stage: mitosis) were 54 °C and 52.9 °C, respectively. Besides, the “solubility change mitosis (log2)” value with HeLa Kyoto [3] worked out at 0.00706. Besides, the thermal stability score is -0.642 with HeLa Kyoto [4] (setting [5]) and -0.308 in the data set on HeLa Kyoto [4] (cell cycle stage: mitosis).

For “MGTPASGRKRTPVKDRFSAEDEALSNIAREAEARLAAKRAARAEARDIRMRELERQQKEYSLHSFDRKWGQIQKWLEDSERARYSHRSSHHRPYLGVEDALSIRSVGSHRYDMFKDRSSRLSSLNHSYSHSHGMKKRSSDSHKDLLSGLYFDQRNYSSLRHSKPTSAYYTRQSSSLYSDPLATYKSDRASPTANSGLLRSASLASLYNGGLYNPYGPRTPSECSYYSSRISSARSSPGFTNDDTASIVSSDRASRGRRESVVSAADYFSRSNRRGSVVSEVDDISIPDLSSLDEKSDKQYAENYTRPSSRNSASATTPLSGNSSRRGSGDTSSLIDPDTSLSELRDIYDLKDQIQDVEGRYMQGLKELKESLSEVEEKYKKAMVSNAQLDNEKNNLIYQVDTLKDVIEEQEEQMAEFYRENEEKSKELERQKHMCSVLQHKMEELKEGLRQRDELIEEKQRMQQKIDTMTKEVFDLQETLLWKDKKIGALEKQKEYIACLRNERDMLREELADLQETVKTGEKHGLVIIPDGTPNGDVSHEPVAGAITVVSQEAAQVLESAGEGPLDVRLRKLAGEKEELLSQIRKLKLQLEEERQKCSRNDGTVGDLAGLQNGSDLQFIEMQRDANRQISEYKFKLSKAEQDITTLEQSISRLEGQVLRYKTAAENAEKVEDELKAEKRKLQRELRTALDKIEEMEMTNSHLAKRLEKMKANRTALLAQQ [LRRFIP2]”, the “solubility in G1/S (log2)” value with HeLa Kyoto [1] was found to be 0.672. The results for the melting temperature in the data set with HeLa Kyoto [2] (cell cycle stage: G1/S) and in the data set on HeLa Kyoto [2] (cell cycle stage: mitosis) were 53.3 °C and 53.7 °C, respectively. In the data set on HeLa Kyoto [3], the “solubility change mitosis (log2)” value came to 0.251. Moreover, the thermal stability score is -3.39 in the data set with HeLa Kyoto [4] (setting [5]) and -4.14 with HeLa Kyoto [4] (cell cycle stage: mitosis).

Turning to HERC2, the “solubility in G1/S (log2)” value in the data set with HeLa Kyoto [1] was -0.443. Further, the melting temperature in the data set on HeLa Kyoto [2] (cell cycle stage: G1/S) is 51.3 °C; in the data set with HeLa Kyoto [2] (cell cycle stage: mitosis), 50 °C. The “solubility change mitosis (log2)” value with HeLa Kyoto [3] is 0.00915. For the same substance, the thermal stability score with HeLa Kyoto [4] (setting [5]) stood at 0.138; with HeLa Kyoto [4] (cell cycle stage: mitosis) it was 0.405.

For “MKLLARALRLCEFGRQASSRRLVAGQGCVGPRRGCCAPVQVVGPRADLPPCGACITGRIMRPDDANVAGNVHGGTILKMIEEAGAIISTRHCNSQNGERCVAALARVERTDFLSPMCIGEVAHVSAEITYTSKHSVEVQVNVMSENILTGAKKLTNKATLWYVPLSLKNVDKVLEVPPVVYSRQEQEEEGRKRYEAQKLERMETKWRNGDIVQPVLNPEPNTVSYSQSSLIHLVGPSDCTLHGFVHGGVTMKLMDEVAGIVAARHCKTNIVTASVDAINFHDKIRKGCVITISGRMTFTSNKSMEIEVLVDADPVVDSSQKRYRAASAFFTYVSLSQEGRSLPVPQLVPETEDEKKRFEEGKGRYLQMKAKRQGHAEPQP [ACOT7]”, the “solubility in G1/S (log2)” value in the data set with HeLa Kyoto [1] turned out to be 0.0352. Moreover, the melting temperature in the data set with HeLa Kyoto [2] (cell cycle stage: G1/S) stood at 58.9 °C; in the data set on HeLa Kyoto [2] (cell cycle stage: mitosis), 59.2 °C. In addition, in the data set on HeLa Kyoto [3], the “solubility change mitosis (log2)” value was -0.0718. In addition, the thermal stability score in the data set with HeLa Kyoto [4] (setting [5]) was -2.43; with HeLa Kyoto [4] (cell cycle stage: mitosis), -3.98.

“MAAAAQLSLTQLSSGNPVYEKYYRQVDTGNTGRVLASDAAAFLKKSGLPDLILGKIWDLADTDGKGILNKQEFFVALRLVACAQNGLEVSLSSLNLAVPPPRFHDTSSPLLISGTSAAELPWAVKPEDKAKYDAIFDSLSPVNGFLSGDKVKPVLLNSKLPVDILGRVWELSDIDHDGMLDRDEFAVAMFLVYCALEKEPVPMSLPPALVPPSKRKTWVVSPAEKAKYDEIFLKTDKDMDGFVSGLEVREIFLKTGLPSTLLAHIWSLCDTKDCGKLSKDQFALAFHLISQKLIKGIDPPHVLTPEMIPPSDRASLQKNIIGSSPVADFSAIKELDTLNNEIVDLQREKNNVEQDLKEKEDTIKQRTSEVQDLQDEVQRENTNLQKLQAQKQQVQELLDELDEQKAQLEEQLKEVRKKCAEEAQLISSLKAELTSQESQISTYEEELAKAREELSRLQQETAELEESVESGKAQLEPLQQHLQDSQQEISSMQMKLMEMKDLENHNSQLNWCSSPHSILVNGATDYCSLSTSSSETANLNEHVEGQSNLESEPIHQESPARSSPELLPSGVTDENEVTTAVTEKVCSELDNNRHSKEEDPFNVDSSSLTGPVADTNLDFFQSDPFVGSDPFKDDPFGKIDPFGGDPFKGSDPFASDCFFRQSTDPFATSSTDPFSAANNSSITSVETLKHNDPFAPGGTVVAASDSATDPFASVFGNESFGGGFADFSTLSKVNNEDPFRSATSSSVSNVVITKNVFEETSVKSEDEPPALPPKIGTPTRPCPLPPGKRSINKLDSPDPFKLNDPFQPFPGNDSPKEKDPEIFCDPFTSATTTTNKEADPSNFANFSAYPSEEDMIEWAKRESEREEEQRLARLNQQEQEDLELAIALSKSEISEA [EPS15]”: the “solubility in G1/S (log2)” value in the data set on HeLa Kyoto [1] stood at 0.2. For the same substance, the melting temperature turned out to be 51 °C in the data set on HeLa Kyoto [2] (cell cycle stage: G1/S) and 51.5 °C with HeLa Kyoto [2] (cell cycle stage: mitosis). Also, the “solubility change mitosis (log2)” value in the data set on HeLa Kyoto [3] was -0.117. Further, the thermal stability score in the data set on HeLa Kyoto [4] (setting [5]) was 0.399; with HeLa Kyoto [4] (cell cycle stage: mitosis) it was 1.19.

“MEMGRRIHLELRNRTPSDVKELVLDNSRSNEGKLEGLTDEFEELEFLSTINVGLTSIANLPKLNKLKKLELSDNRVSGGLEVLAEKCPNLTHLNLSGNKIKDLSTIEPLKKLENLKSLDLFNCEVTNLNDYRENVFKLLPQLTYLDGYDRDDKEAPDSDAEGYVEGLDDEEEDEDEEEYDEDAQVVEDEEDEDEEEEGEEEDVSGEEEEDEEGYNDGEVDDEEDEEELGEEERGQKRKREPEDEGEDDD [ANP32A]”: in the data set with HeLa Kyoto [1], the “solubility in G1/S (log2)” value is -0.297. Further, the melting temperature was determined as 52.3 °C with HeLa Kyoto [2] (cell cycle stage: G1/S) and 53.2 °C in the data set with HeLa Kyoto [2] (cell cycle stage: mitosis). The “solubility change mitosis (log2)” value in the data set on HeLa Kyoto [3] came to 0.466. Also, the figures for the thermal stability score in the data set with HeLa Kyoto [4] (setting [5]) and with HeLa Kyoto [4] (cell cycle stage: mitosis) were 0.819 and 2.54, respectively.
